Consider 1 molecule from EP4681729A1.

Assay [1] addresses h-PVRIG-mIgG2a Fc (mouse IgG2a Fc-tagged human PVRIG recombinant protein) (human; mouse) (UniProt Q6DKI7). Nature of the assay: blocking ELISA (method of Example 2-3), human PVRL2 as the ligand that is blocked.
For assay [2], the target named is h-PVRIG-his (his-tagged human PVRIG recombinant protein) (human) (UniProt Q6DKI7). Nature of the assay: ELISA, plate coated with PVRIG-his.
For assay [3] the target is unchanged. The assay can be described thus: ELISA, human PVRIG recombinant protein.
The target is the same in assay [4]. The assay can be described thus: Fortebio BLI, antibody on Protein A sensor, his-tagged human PVRIG 64-4 nM, 1:1 fit.
Assay [5] has as its target h-PVRIG-mIgG2a Fc (mouse IgG2a Fc-tagged human PVRIG recombinant protein) (human; mouse) (UniProt Q6DKI7). The assay can be described thus: competition ELISA, coated h-PVRIG-mIgG2a Fc, his-tagged PVRL2 as the ligand that is blocked.

Chain of h-PVRIG-his (his-tagged human PVRIG recombinant protein) (human) (Q6DKI7 41-171 limits assumed): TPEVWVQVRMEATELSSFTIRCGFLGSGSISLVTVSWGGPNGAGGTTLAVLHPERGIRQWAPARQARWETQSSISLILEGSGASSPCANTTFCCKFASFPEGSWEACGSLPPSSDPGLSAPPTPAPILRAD
Chain of h-PVRIG-mIgG2a Fc (mouse IgG2a Fc-tagged human PVRIG recombinant protein) (human; mouse) (Q6DKI7 41-171 limits assumed): as above

B1: Tab5 (antibody, from another filing, V domains shown)
VH: EVQLVESGGGVVKPGGSLRLSCAASGFTFGTSSMNWVRQAPGKGLEWVAVISFDGTEIHYADSVKGRFTISRDNSKSTVFLQMNSLRPDDTALYYCAKGSGNIYFYSGMDVWGQGTTVTVSS
VL: DIQMTQSPSTLSASVGDRVTITCRAGQSISGWLAWFQQKPGKAPNLLIYETSTLESGVPSRFSGSGSGTEYTLTISSLQPDDFATYYCQQYYSYPLTFGQGTKVEIKR
With B1, the IC50 in assay [1] came to 0.964 nM. Also, the EC50 in assay [2] turned out to be 2.86 nM. Also, in assay [3], the EC50 worked out at 1.41 nM. Besides, in assay [4], the Kd worked out at 0.219 nM, the koff turned out to be 1.61e-05 s⁻¹ and the kon turned out to be 737000 M⁻¹ s⁻¹. In addition, the IC50 in assay [5] was 1.16 nM.
